PMC7048787, “MCL1 binding to the reverse BH3 motif of P18INK4C couples cell survival to cell proliferation” (Cell Death & Disease, 2020)
Where two headings read alike, the source gives them in different places. No end group written: not given here.

Tests used:
[1] = system: WAC2 cells (MCL1 overexpressed); test: PI DNA content flow cytometry, cell cycle population of MCL1-overexpressing WAC2 cells treated with BH3 mimetics; format: cell-based, human; details: PI staining, N = 3, Fig. 6a; for effect on MCL1 overexpression induced decrease in G1 population: WAC2, MCL1 plasmid, then BH3 mimetic for 18 h, final DMSO 0.5%
[2] = system: recombinant MCL1 (rMCL1); test: In vitro pulldown of recombinant MCL1 by recombinant P18/P16 constructs; format: binding, human; details: for pull-down of recombinant MCL1: Western blot of in vitro pulldown, recombinant proteins (IP), rMCL1 (IB), Fig. 2b
Excerpt: Human MCL1 [Uniprot: Q07820] (residues 163–326), human P18 [Uniprot: P42773] (residues 1–168), A1–4 (P18 residues 1–140), A4–5 (P18 residues 106–168), P16 [Uniprot: P42771] (residues 1–156), and AC (P16 residues 1–113 and P18 residues 106–168) were sequence-optimized for bacterial expression and cloned into the restriction sites of NdeI and HindIII in a pET28a vector (EMD Millipore) to incorporate a N-terminal hexa-histidine (His6) tag and transformed into BL21(DE3) E. Coli (New England Bio Labs). Cultures were grown under kanamycin selection in Luria broth to a 600 nm optical density of 0.6 and expression was induced by addition of 1 mM isopropyl β-D-1-thiogalactopyranoside (Thermo Fisher). Cultures were harvested 3–4 h after induction by centrifugation at 4700 × g. Resulting bacterial pellets were stored at −80 °C. His6-MCL1 bacterial pellets were re-suspended (10 mL/wet g of pellet) in Buffer A (1 × PBS, pH 6.8) with the addition of 1× lysozyme (0.25 mg/mL) (Thermo Fisher) and 1 protease inhibitor tablet (Pierce #88266), sonicated, and cleared at 14,000 × g. Resulting lysate was purified on NGC FPLC (Bio-Rad Laboratories) using a 1 mL HiTrap HP nickel column (GE Healthcare) equilibrated with Buffer A. Protein was eluted with a 2 mM–1000 mM imidazole gradient. His-MCL1 containing fractions, as identified by denaturing polyacrylamide gel electrophoresis, were further purified by gel filtration in Buffer B (1× PBS, pH 6.8) on a HiPrep 16/60 Sephacryl S-100 column (GE Healthcare). Resulting protein identity was confirmed by matrix-assisted laser desorption/ionization (MALDI) mass spectrometry.
Fig. 2 MCL1 binds specifically to P18 through C-terminal rBH3. a Western blot of endogenous coIP of MCL1 (IP) with P18 (IB), BAX (IB), and P18 (IB) in WAC2. b Western blot of in vitro pulldown of recombinant proteins (IP), ANK1–4, ANK4–5, P18, p16, and chimera, with recombinant MCL1 (rMCL1) (IB). Cartoon of the p16, P18, and chimera proteins are shown below the blot. rBH3-containing helix is highlighted in yellow (Residues: 150–161). c Western blot of in vitro pulldown of recombinant P18 (IP) with rMCL1 (IB) with and without MCL1 inhibitor S63845.
P18 is a member of the INK4 protein family [P16INK4A (P16, CDKN2A), P15INK4B (P15, CDKN2B), P18INK4C (P18, CDKN2C), and P19INK4D (P19, CDKN2D)] that regulate G1/S cell cycle progression with all INK4 proteins retaining homologous CDK4/6 inhibitory function. INK4 family proteins have homologous structures containing either four or five ankyrin (ANK) repeats, a helix-turn-helix structural unit known to mediate protein-protein interactions[15],[17]. […] The rBH3 in P18 resides in its fifth ankyrin repeat (residues 141–168). […] Based on prior stability studies of ankyrin repeats within INK4 family proteins[18],[19], we designed two truncations of P18 (Supplementary Table S1). The first, P18-ANK1–4 (ANK1–4), removes the rBH3-containing fifth ankyrin repeat. The second, P18-ANK4–5 (ANK4–5), retains the rBH3 domain as well as ankyrin repeat 4 to facilitate folding.

[3] = target: T1, His6-MCL1 (human MCL1 residues 163-326) (human, UniProt Q07820 163-326); test: fluorescence polarisation; competition FPA: 100 nM His6-MCL1 with variable unlabeled P18 protein or peptides for 10 min at RT, then 10 nM FITC-AHX-BAK for 1 h; 1x PBS pH 7.4, 100 uL, 96-well plates
T1 construct: Named His6-MCL1 in the FPA; called rMCL1 in the pull-downs; also called His-MCL1; recombinant MCL1; source: E. coli BL21(DE3), purified (nickel column, gel filtration); not shown: His6, N-terminal, kept
Target sequence in this assay (Q07820 163-326): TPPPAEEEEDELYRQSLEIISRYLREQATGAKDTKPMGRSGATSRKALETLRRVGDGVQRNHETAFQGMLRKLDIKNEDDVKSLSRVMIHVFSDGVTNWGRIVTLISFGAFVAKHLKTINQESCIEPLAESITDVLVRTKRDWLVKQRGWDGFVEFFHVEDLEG

[4] = target: T1, His6-MCL1 (human MCL1 residues 163-326); test: pull-down; in vitro pulldown of recombinant P18, P16, truncated and chimeric proteins (IP) with recombinant MCL1 (IB); details: both partners purified

Cc1c(-c2c(-c3ccc(F)o3)sc3ncnc(O[C@H](Cc4ccccc4OCc4ccnn4CC(F)(F)F)C(=O)O)c23)ccc(OCCN2CCN(C)CC2)c1Cl [S63845]
effect on MCL1 overexpression induced decrease in G1 population [1]: rescued the MCL1 overexpression induced decrease in G1 population back to control levels
disruption of P18 pulldown of MCL1 ([2]; recombinant P18 (IP) with rMCL1 (IB) with and without MCL1 inhibitor, Fig. 2c): suppressed the ability of P18 to pull-down MCL1

P18 12-mer peptide (P18 rBH3) (from UniProt P42773 150-161)
IC50 [3]: 2500 nM

CC1(C)CCC(CN2CCN(c3ccc(C(=O)NS(=O)(=O)c4ccc(NCC5CCOCC5)c([N+](=O)[O-])c4)c(Oc4cnc5[nH]ccc5c4)c3)CC2)=C(c2ccc(Cl)cc2)C1 [ABT-199]
impact on sub-G1 cell population ([1]; WAC2, MCL1 overexpressed, BH3 mimetic 18 h): more significant impact on the sub-G1 cell population
effect on MCL1 overexpression induced decrease in G1 population [1]: no impact on the change in G1 population

B1: P18-ANK4-5 (P18 residues 106-168) (domain or fragment, human, UniProt P42773 106-168, looked up)
chain: PLHLAAKEGHLRVVEFLVKHTASNVGHRNHKGDTACDLARLYGRNEVVSLMQANGAGGATNLQ
notes: Human P18 (P18INK4C), residues 106-168: ankyrin repeats 4 and 5, with the rBH3 motif; also called A4-5; source: E. coli BL21(DE3), recombinant
binding result [4]: binds

B2: ANK4–5: P18 residues 106–168, retains the rBH3 domain and ankyrin repeat 4 (protein)
chain: PLHLAAKEGHLRVVEFLVKHTASNVGHRNHKGDTACDLARLYGRNEVVSLMQANGAGGATNLQ
modifications: left off: His6, N-terminal, state not stated
pull-down of recombinant MCL1 [2]: successfully pulled down MCL1

B3: ANK1–4: P18 residues 1–140, truncation that removes the rBH3-containing fifth ankyrin repeat (protein)
chain: MAEPWGNELASAAARGDLEQLTSLLQNNVNVNAQNGFGRTALQVMKLGNPEIARRLLLRGANPDLKDRTGFAVIHDAARAGFLDTLQTLLEFQADVNIEDNEGNLPLHLAAKEGHLRVVEFLVKHTASNVGHRNHKGDTA
modifications: left off: His6, N-terminal, state not stated
notes: P18 residues 1–140, truncation that removes the rBH3-containing fifth ankyrin repeat
pull-down of recombinant MCL1 [2]: showed no interaction

B4: P18 protein (human P18INK4C residues 1-168), recombinant (natural protein, UniProt P42773 1-168, looked up)
chain: MAEPWGNELASAAARGDLEQLTSLLQNNVNVNAQNGFGRTALQVMKLGNPEIARRLLLRGANPDLKDRTGFAVIHDAARAGFLDTLQTLLEFQADVNIEDNEGNLPLHLAAKEGHLRVVEFLVKHTASNVGHRNHKGDTACDLARLYGRNEVVSLMQANGAGGATNLQ
notes: Human P18 (P18INK4C, CDKN2C), residues 1-168, called full-length P18 protein in the results; The purification of this protein is not described; only that of His6-MCL1 is; also called CDKN2C; full-length P18 protein; source: E. coli BL21(DE3), recombinant
IC50 ([3]; both partners purified): 113 nM

B5: P18^INK4C: human P18 [Uniprot: P42773] (residues 1–168), His6-tagged recombinant protein (protein)
chain: MAEPWGNELASAAARGDLEQLTSLLQNNVNVNAQNGFGRTALQVMKLGNPEIARRLLLRGANPDLKDRTGFAVIHDAARAGFLDTLQTLLEFQADVNIEDNEGNLPLHLAAKEGHLRVVEFLVKHTASNVGHRNHKGDTACDLARLYGRNEVVSLMQANGAGGATNLQ
modifications: left off: His6, N-terminal, state not stated
notes: human P18 [Uniprot: P42773]; (residues 1–168), His6-tagged recombinant protein
pull-down of recombinant MCL1 [2]: successfully pulled down MCL1

B6: P16: recombinant P16 [Uniprot: P42771] (residues 1–156), negative control (protein)
chain: MEPAAGSSMEPSADWLATAAARGRVEEVRALLEAGALPNAPNSYGRRPIQVMMMGSARVAELLLLHGAEPNCADPATLTRPVHDAAREGFLDTLVVLHRAGARLDVRDAWGRLPVDLAEELGHRDVARYLRAAAGGTRGSNHARIDAAEGPSDIPD
modifications: left off: His6, N-terminal, state not stated
notes: recombinant P16 [Uniprot: P42771]; (residues 1–156), negative control
pull-down of recombinant MCL1 [2]: showed no interaction

B7: Chimeric protein of P16-ANK1-3 and P18-ANK4-5 (P16 residues 1-113 and P18 residues 106-168) (other, human, UniProt P42771 1-113, looked up)
chain: MEPAAGSSMEPSADWLATAAARGRVEEVRALLEAGALPNAPNSYGRRPIQVMMMGSARVAELLLLHGAEPNCADPATLTRPVHDAAREGFLDTLVVLHRAGARLDVRDAWGRLPLHLAAKEGHLRVVEFLVKHTASNVGHRNHKGDTACDLARLYGRNEVVSLMQANGAGGATNLQ
notes: Human P18 (P18INK4C), residues 106-168 (ankyrin repeats 4-5 with the rBH3 motif); also called AC; chimera; source: E. coli BL21(DE3), recombinant
binding result [4]: binds

B8: chimera: chimeric protein consisting of P16-ANK1–3 and P18-ANK4–5 (P16 residues 1–113 and P18 residues 106–168) (protein)
chain: MEPAAGSSMEPSADWLATAAARGRVEEVRALLEAGALPNAPNSYGRRPIQVMMMGSARVAELLLLHGAEPNCADPATLTRPVHDAAREGFLDTLVVLHRAGARLDVRDAWGRLPLHLAAKEGHLRVVEFLVKHTASNVGHRNHKGDTACDLARLYGRNEVVSLMQANGAGGATNLQ
modifications: left off: His6, N-terminal, state not stated
pull-down of recombinant MCL1 [2]: gained the ability to pulldown recombinant MCL1

CDLARLYGRNEVVSLAQANGA (not fully specified (C-terminus)) [P18 rBH3 peptide with alanine substitution of M156]
IC50 ([3]; both partners purified): > 30000 nM

B9: P18 21-mer peptide (P18 residues 141-161) (peptide, UniProt P42773 141-161, looked up)
peptide: CDLARLYGRNEVVSLMQANGA
notes: Human P18 (P18INK4C), residues 141-161, holding the rBH3 motif (150-161); Made on rink amide MBHA resin, so the C-terminus is probably an amide (surmised); also called P18x peptides; source: synthetic peptide
IC50 ([3]; both partners purified): 778 nM

CDLARLYGRNAVVSLMQANGA (not fully specified (C-terminus)) [P18 rBH3 peptide with alanine substitution of E151]
IC50 ([3]; both partners purified): > 30000 nM
